{"source": "paper PMC7255924", "about": "(The FEBS journal, 2019)", "binders": {"B1": {"name": "A3VP1 (386–864) polypeptide of Streptococcus mutans adhesin P1 (domain or fragment)", "chain": "AANEADYQAKLTAYQTELARVQKANADAKAAYEAAVAANNAANAALTAENTAIKKRNADAKADYEAKLAKYQADLAKYQKDLADYPVKLKAYEDEQASIKAALAELEKHKNEDGNLTEPSAQNLVYDLEPNANLSLTTDGKFLKASAVDDAFSKSTSKAKYDQKILQLDDLDITNLEQSNDVASSMELYGNFGDKAGWSTTVSNNSQVKWGSVLLERGQSATATYTNLQNSYYNGKKISKIVYKYTVDPKSKFQGQKVWLGIFTDPTLGVFASAYTGQVEKNTSIFIKNEFTFYDEDGKPINFDNALLSVASLNRENNSIEMAKDYTGKFVKISGSSIGEKNGMIYATDTLNFRQGQGGARWTMYTRASEPGSGWDSSDAPNSWYGAGAIRMSGPNNSVTLGAISSTLVVPADPTMAIETGKKPNIWYSLNGKIRAVNVPKVTKEKPTPPVKPTAPTKPTYETEKPLKPAPVAPNYEKE"}}, "target": "T1, C3 domain of Streptococcus mutans adhesin P1 (recombinant C3 polypeptide, 175-residue construct) (Streptococcus mutans)", "T1 chain": "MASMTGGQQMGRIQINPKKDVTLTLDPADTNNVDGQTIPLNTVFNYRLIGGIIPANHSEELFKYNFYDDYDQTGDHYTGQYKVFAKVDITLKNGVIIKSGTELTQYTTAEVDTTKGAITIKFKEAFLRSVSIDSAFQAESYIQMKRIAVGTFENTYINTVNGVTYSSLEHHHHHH", "assay": "ITC", "data": [{"binder": "B1", "values": [{"measurement": "KD of the site with intermediate binding constant (two-site fit)", "result": "35.2 ± 7", "unit": "µM"}]}]}
